In the data set the test system is CgpS (Corynebacterium glutamicum ATCC 13032 (strain of the protein implied?)). The experiment in a line: SPR. The following applies: SPR: biotinylated DNA on streptavidin chip, CgpS 180 s association, 420 s dissociation, EMSA: 14 nM DNA, buffer, salt, pH and temperature in Text S1, not in …. On the technique in general: A gel shift assay detects complexes by their altered migration in electrophoresis.

pKd: −log10 of the molar value.

In general, pKd refers to −log10 of the Kd, conventionally taken in molar units.

Consider Pcg1999, for which the pKd is 7.24.

As to Pcg3336 (control), the pKd (very fast dissociation) is 6.42.

With Plys (SPR), the negative-log Kd (pKd) was 7.96.

Source of the values: paper PMC7002338.
